The target in test [1] is T1, huCTLA-4 ECD (his-tag) (human, UniProt P16410 37-162).
T1 construct: also called HX1 hCTLA4 his; HX1 huCTLA4 his; not shown: his-tag
T1 sequence: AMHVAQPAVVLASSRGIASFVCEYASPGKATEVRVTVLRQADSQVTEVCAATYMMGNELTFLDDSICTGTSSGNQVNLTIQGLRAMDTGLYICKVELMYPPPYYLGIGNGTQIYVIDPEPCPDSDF
Nature of the test: ELISA, coated huCTLA-4 his. How it is done: HX1 hCTLA4 his was diluted with PBS (Hyclone) to 1.0 μg/mL, and the dilution was added to a microplate at 100 μL/well. The plate was let stand in an incubator at 37° C. and coated for 90 min and then washed, and 2% BSA was added to the plate at 200 μL/well. The plate was incubated in an incubator at 37° C. for 90 min and then washed. The humanized anti-CTLA-4 antibodies in Table 4 and the control antibody (ipilimumab) were diluted with a diluent (2% BSA) to 1000 ng/mL. The dilution performed each time was not higher than 10-fold. Then, the humanized antibodies and the control antibody were serially diluted 2.5-fold on a sample dilution plate. All the humanized antibody solutions and the control antibody solution were added to a microplate at 100 μL/well. The plate was incubated in an incubator at 37° C. for 60 min and then washed. An HRP-conjugated goat anti-human antibody IgG (Fc specific) was diluted 5000-fold with 2% BSA, and the dilution was added to the microplate at 100 μL/well. The plate was incubated in an incubator at 37° C. for 60 min and then washed. The color development solution TMB was added at 100 μL/well, during which bubbles were avoided. Color development was allowed at 37° C. for 15 min in the dark and then terminated by adding 2 M hydrochloric acid solution at 100 μL/well, during which bubbles were avoided. Reading (wavelength: 450/620 nm) was done within 10 min using a microplate reader.
A general note: ELISA stands for enzyme-linked immunosorbent assay.

Test [2] has as its target T2, huCTLA-4 expressed on cells (human, UniProt P16410 36-223).
T2 construct: the construct in the cells is not described; also called HuCTLA-4-expressing CHO cells; huCTLA-4-expressing Jurkat effector cells
T2 sequence: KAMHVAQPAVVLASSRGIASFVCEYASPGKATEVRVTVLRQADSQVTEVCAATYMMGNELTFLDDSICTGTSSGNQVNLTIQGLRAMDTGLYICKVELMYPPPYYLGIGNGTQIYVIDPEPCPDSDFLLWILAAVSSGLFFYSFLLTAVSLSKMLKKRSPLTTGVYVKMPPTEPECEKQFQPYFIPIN
Nature of the test: FACS on huCTLA-4-expressing CHO cells. How it is done: 6.2 FACS Detection of Binding of Chimeric Antibodies to huCTLA-4-Expressing Cells HuCTLA-4-expressing cells (constructed in-house by Junmeng; CHO from ATCC) were co-incubated with each of the chimeric antibodies in Table 3 and the control antibody (ipilimumab) (serially diluted 3-fold from an initial concentration of 10 μg/mL) at room temperature for 30 min, and then a fluorescent secondary antibody (PE-anti human IgG) was added to detect the binding of the chimeric antibodies to the huCTLA-4-expressing cells.

The target in test [3] is T1, huCTLA-4 ECD (his-tag). Description: competition ELISA, coated huCTLA-4 his, competitor hCD80 Fc. How it is done: HX1 huCTLA4 his was diluted with PBS (Hyclone) to 1.0 μg/mL, and the dilution was added to a microplate at 100 μL/well. The plate was let stand in an incubator at 37° C. and incubated for 90 min and then washed, and 2% BSA was added to the plate at 200 μL/well. The plate was incubated in an incubator at 37° C. for 90 min and then washed. MX2 hCD80 Fc was diluted with 2% BSA to 5.0 μg/mL, and the dilution was used to dilute samples. The chimeric antibodies and the control antibody ipilimumab were diluted to 100 μg/mL. The dilution performed each time was not higher than 10-fold. Then, the chimeric antibodies and the control antibody were serially diluted 2.5-fold on a sample dilution plate. All the chimeric antibody solutions and the control antibody solution were added to a microplate at 100 μL/well. The plate was incubated in an incubator at 37° C. for 90 min and then washed. An HRP-conjugated goat anti-mouse antibody IgG (Fc specific) (Sigma, Catalog No. A2554) was diluted 5000-fold with 2% BSA, and the dilution was added to the microplate at 100 μL/well. The plate was incubated in an incubator at 37° C. for 60 min and then washed. The color development solution TMB was added at 100 μL/well, during which bubbles were avoided. Color development was allowed at 37° C. for 15 min in the dark and then terminated by adding 2 M hydrochloric acid solution at 100 μL/well, during which bubbles were avoided. Reading (wavelength: 450/620 nm) was done within 10 min using a microplate reader.

Test [4] concerns the target T3, huCTLA-4 (human, UniProt P16410 36-161).
T3 construct: also called human CTLA (huCTLA) antigen; huCTLA4 recombinant protein
T3 sequence: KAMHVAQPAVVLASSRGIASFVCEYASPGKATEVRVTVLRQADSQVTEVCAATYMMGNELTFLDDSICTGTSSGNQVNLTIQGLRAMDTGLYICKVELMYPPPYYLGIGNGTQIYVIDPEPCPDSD
Nature of the test: FACS blocking, huCTLA4 recombinant protein on CD80-expressing CHO cells; CD80-expressing CHO cells. How it is done:
(§1) The chimeric antibodies in Table 3 and the control antibody ipilimumab (serially diluted 3-fold from an initial concentration of 30 μg/mL) were each added to CD80- or CD86-expressing CHO cells (constructed in-house by Junmeng) together with a certain concentration of huCTLA4 recombinant protein. After they were co-incubated at room temperature for 30 min, a fluorescent secondary antibody (PE-anti human IgG4) (Southern biotech) was added to determine the abilities of the chimeric antibodies to block the binding of huCTLA-4 to the CD80/CD86-expressing cells.

Test [5] addresses T3, huCTLA-4. Nature of the test: FACS blocking, huCTLA4 recombinant protein on CD86-expressing CHO cells; CD86-expressing CHO cells. How it is done: as §1
Test [6] addresses T3, huCTLA-4. Nature of the test: ForteBio. Background: In BLI a coated tip is dipped into the sample, and binding shifts an interference pattern.
Test [7] concerns the target T4, BTLA on 293T-BTLA cells (UniProt Q7Z6A9 31-289, limits assumed).
T4 construct: whole, on cells
Nature of the test: flow cytometry on 293T-BTLA cells. How it is done: (§2) Then the above cell mixture was incubated with 5 μL of APC-labeled murine secondary antibody (Southern Biotech) at 4° C. for 20 min, and the secondary antibody bound onto the cells was detected. The control antibody was selected from commercially available CTLA4 monoclonal antibody L3D10 (BioLegend) and TIGIT monoclonal antibody MBSA43 (eBioscience).

Test [8] concerns the target T5, TIGIT on 293T-TIGIT cells (UniProt Q495A1 22-244, limits assumed).
T5 construct: whole, on cells
T5 sequence (looked up): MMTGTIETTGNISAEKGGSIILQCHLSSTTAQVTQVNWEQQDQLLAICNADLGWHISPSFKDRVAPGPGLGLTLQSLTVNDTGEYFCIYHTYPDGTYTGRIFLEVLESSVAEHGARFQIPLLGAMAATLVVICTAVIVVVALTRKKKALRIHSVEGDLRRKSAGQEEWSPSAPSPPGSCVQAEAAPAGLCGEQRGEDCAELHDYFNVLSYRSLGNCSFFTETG
Description: flow cytometry on 293T-TIGIT cells. How it is done: as §2

One may read the EC50 as the concentration at which the effect is half-maximal. The IC50 is the concentration that gives 50% inhibition. Broadly, the Kd is a measure of binding affinity in units of concentration. Low values mean a tighter complex, high ones a looser complex.

B1: JS007-3 (antibody, V domains shown)
VH: DVQLQESGQGLVKPSQSLSLTCSVTGYSITSGYYWNWIRQFPGNKLEWLGYIGYDGSNYYNPSLKNRISITRDTSKNQFFLKLNSVTSEDTATYFCARNYYSGYFDFWGQGTTLTVSS
VL: DIVMTQSQKFMSTSVGDSVSVTCKASQNVGTYVAWYQQKPGQSPKPLIYSTSYRYSGVPDRFTGSGSGTDFTLTISNVQSEDLAEYFCHQYDTYPLTFGAGTKLELK
notes: also called JS007-3 chimeric antibody
Consider B1, for which the EC50 in test [1] was found to be 17.2 ng/mL; in test [2] it was 249 ng/mL. For the same molecule, the IC50 is 190 ng/mL in test [3], 0.699 ng/mL in test [4] and 0.196 ng/mL in test [5].

B2: 1A5.1 (antibody, V domains shown)
VH: DVQLQESGQGLVKPSQSLSLTCSVTGYSITSGYYWNWIRQFPGNKLEWLGYIGYDGSNYYNPSLKNRISITRDTSKNQFFLKLNSVTSEDTATYFCARNYYSGYFDFWGQGTTLTVSS
VL: DIVMTQSQKFMSTSVGDRVSVTCKASQIVGSYVAWYQQKLGQSPKALIYSTSYRHSGVPDRFTGSGSGTDFTLTISNVQSEDLAEYFCQQHHLPLTFGAGTKLEIK
notes: Murine hybridoma antibody
As to B2, in test [6], binding was put at a Kd of 1.74 nM. For the same molecule, the binding result in test [7] and in test [8] was “no binding (tested: 1 µg of hybridoma antibody)” throughout.

B3: JS007-15 (antibody, V domains shown)
VH: DVQLQESGPGLVKPSQSLSLTCSVTAYSITSGYYWNWIRQFPGNKLEWMGYIGYDGSNNYNPSLKNRISITRDTSKNQFFLKLNSVTTEDTATYYCARDYYSGYFDSWGQGTTLTVSS
VL: DIVMTQSQKFMSTSVGDSVSVTCKASQNVGTYVAWYQQKPGQSPKPLIYSTSYRYSGVPDRFTGSGSGTDFTLTISNVQSEDLAEYFCHQYDTYPLTFGAGTKLELK
notes: also called JS007-15 chimeric antibody
Consider B3, for which the concentration giving a half-maximal response (EC50) in test [1] came to 19.7 ng/mL; in test [2], 189 ng/mL. Also, the values for the IC50 in test [3], in test [4] and in test [5] were 190 ng/mL, 0.398 ng/mL and 0.0816 ng/mL, respectively.

B4: 3E6.1 (antibody, V domains shown)
VH: EVKLVESGGGLVQPGGSLRLSCATSGFTFTDYYMSWVRQPPGKALEWLGFIRNKANGFTAEYSASVKGRFTISRDNSQSILYLQMNTLRAEDSATYYCARDSLAYPHYYAMDYWGQGTSVTVSS
VL: QIVLTQSPALMSASPGEKVTMTCSASSSVSYMYWYQQKPRSSPKPWIYLTSNLASGVPVRFSGSGSGTSYSLTISSMEAEDAATYYCQQWSSNSFTFGSGTKLEIK
notes: Murine hybridoma antibody
B4: the Kd in test [6] is less than 0.001 nM. Moreover, the binding result in test [7] and in test [8] was “no binding (tested: 1 µg of hybridoma antibody)” throughout.

B5: 5B9.1 (antibody, V domains shown)
VH: EVQLQQSGPELVKPGASVKMSCKASGYTFTDYYMKWMKQSHGKSLEWIGHINPNNGDTFYNQKFTGKATLTVDKSSSTASMHLNSLTSEDSAVYYCARGGDGRGTWFAYWGQGTLVTVSS
VL: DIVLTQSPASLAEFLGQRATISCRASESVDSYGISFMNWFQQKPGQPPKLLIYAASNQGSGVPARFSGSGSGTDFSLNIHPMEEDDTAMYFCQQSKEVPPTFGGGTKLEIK
notes: Murine hybridoma antibody
For B5, the Kd in test [6] was less than 0.001 nM. For the same molecule, the binding result in test [7] and in test [8] was “no binding (tested: 1 µg of hybridoma antibody)” in each case.

B6: JS007-20 (antibody, V domains shown)
VH: EVQLQQSGPELVKPGASVKMSCKASGYTFTDYYMKWMKQSHGKSLEWIGHINPNNGDTFYNQKFTGKATLTVDKSSSTASMHLNSLTSEDSAVYYCARGGDGRGTWFAYWGQGTLVTVSS
VL: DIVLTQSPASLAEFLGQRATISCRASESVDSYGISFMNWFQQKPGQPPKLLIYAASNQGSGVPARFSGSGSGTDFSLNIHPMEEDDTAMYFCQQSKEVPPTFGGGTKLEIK
notes: also called JS007-20 chimeric antibody
For B6, the figures for the EC50 in test [1] and in test [2] were 12.9 ng/mL and 486 ng/mL, respectively. The values for the IC50 in test [3], in test [4] and in test [5] were 187 ng/mL, 1.21 ng/mL and 0.253 ng/mL, respectively.

These data come from patent US20230295301A1 (SHANGHAI JUNSHI BIOSCIENCES, published 2023).
